From the DeepSol protein solubility set

test: soluble on expression in E. coli; label from the status in PepcDB or PDB records

Sequence	soluble on expression in E. coli
MENMLLWLIFFTPGWTLIDGSEMEWDFMWHLRKVPRIVSERTFHLTSPAFEADAKMMVNTVCGIECQKELPTPSLSELEDYLSYETVFENGTRTLTRVKVQDLVLEPTQNITTKGVSVRRKRQVYGTDSRFSILDKRFLTNFPFSTAVKLSTGCSGILISPQHVLTAAHCVHDGKDYVKGSKKLRVGLLKMRNKSGGKKRRGSKRSRREASGGDQREGTREHLQERAKGGRRRKKSGRGQRIAEGRPSFQWTRVKNTHIPKGWARGGMGDATLDYDYALLELKRAHKKKYMELGISPTIKKMPGGMIHFSGFDNDRADQLVYRFCSVSDESNDLLYQYCDAESGSTGSGVYLRLKDPDKKNWKRKIIAVYSGHQWVDVHGVQKDYNVAVRITPLKYAQICLWIHGNDANCAYG	not soluble
MSCPVIELTQQLIRRPSLSPDDAGCQALLIERLQAIGFTVERMDFADTQNFWAWRGQGETLAFAGHTDVVPPGDADRWINPPFEPTIRDGMLFGRGAADMKGSLAAMVVAAERFVAQHPNHTGRLAFLITSDEEASAHNGTVKVVEALMARNERLDYCLVGEPSSIEVVGDVVKNGRRGSLTCNLTIHGVQGHVAYPHLADNPVHRAAPFLNELVAIEWDQGNEFFPATSMQIANIQAGTGSNNVIPGELFVQFNFRFSTELTDEMIKAQVLALLEKHQLRYTVDWWLSGQPFLTARGKLVDAVVNAVEHYNEIKPQLLTTGGTSDGRFIARMGAQVVELGPVNATIHKINECVNAADLQLLARMYQRIMEQLVA	soluble
MSVLRSMDKLPDLNRATVLLVSTEDALLQQLAESMLKDDCASELRVHLANSLPLPSNVNRPRIDLIVFVINLHSKYSLQKVEEFLQHVDSSFFLGKVCFLVTGAGQESHCSVHQNTVIKLAHTYRSPLFLCDLQKVESFRAAMARRLVRILQICAGHVPGVSALNLMSLLRSPENPPSKEL	not soluble
MRTQNDLDRRLRSFGGRDGQMTTLSVRRLPVENGISGWEAISKRSKPVRRLEGDVTADWLIIGAGFAGLSAARRLTQLHPGETIVVLDASEVGKGTSGRNSGFMIDVPHNLASSEYSSGAIDATRLEMEQNRSAIAFAAAAAEDYGMSRQTFDPAGKINAAATRRGMTLNQNFAASLKNAGEKHTLLDAAQMRALTGSDYYLGGLYTPGAVLIQPADYIREFAAGLSPKVDIFENSPVTALRRENRAWKATTPSGSVTAPKVILGVNGHVDDFGHFRGRLIHIFAYASMTAPFAARDYGSRVSGQDKWALLPADAMGATVRKITSDGQSRIAIRTRYTYETTLDLTKHQLSKMVRAHRRSLDDRFPGLGGIPFEYSWSGRICLSLNHVPAFGEIEEGLFSACCENGLGTVKSTLAGMMAAELATGTTSRHLEQYMDHPAPSRLPPEPFAWLGINSVIRLQELRAGREGLEHHHHHH	not soluble
SLKCYTCKEPMTSASCRTITRCKPEDTACMTTLVTVEAEYPFNQSPVVTRSCSSSCVATDPDSIGAAHLIFCCFRDLCNSEL	soluble
MAHHHHHHMELEEFWLTDGSISDWGEVKKFCGFANTLRTIYVERNPIEQDKRYRDKVYMNLPFVTQIDSWPVVNKDNLEGDRLIQRRAS	soluble
MKILAISDPHGDYSKMKQIIEKAGDFDLAVVVGDITNFGPDEQVDELAEMFDKPVLAIPGNCDQKTILEALENSKAVNLHGKAEQIGKIRFIGLGGSNPTPFNTPFELSEEEIENALEGMVCSAENSGECGTIVLLTHAPPLGARDELPFGHVGSKAIQKFLDRVDLIVCGHIHEAKGSEKVGKTVVVNPGEACKGSCALIEIEETGNKPIEVEFVEVLEHHHHHH	not soluble
MGHHHHHHSHMSGVAGGASKKSSSRTMATKKLIIDEFKRRLRDNIKSLNDNFFHIIQAAKVNPDDNAYKNQTGKMTEFYTTKNEMAVRAQLMVRASDELLKLTADLKEFLILHDFHFLTHNIKQAEAQCEETLRQQSHQHNCLDSEVSNILFDLEREIAENFYLRHT	not soluble
GMNTNLASFIVGLIIDENDRFYFVQKDGQTYALAKEEGQHTVGDTVKGFAYTDMKQKLRLTTLEVTATQDQFGWGRVTEVRKDLGVFVDTGLPDKEIVVSLDILPELKELWPKKGDQLYIRLEVDKKDRIWGLLAYQEDFQRLARPAYNNMQNQNWPAIVYRLKLSGTFVYLPENNMLGFIHPSERYAEPRLGQVLDARVIGFREVDRTLNLSLKPRSFEMLENDAQMILTYLESNGGFMTLNDKSSPDDIKATFGISKGQFKKALGGLMKAGKIKQDQFGTELI	soluble
GSHMTIEQMVDRLLSYPERTKMQILAPIVSGKKGTHAKTLEDIRKQGYVRVRIDREMRELTGDIELEKNKKHSIDVVVDRIIIKDGIAARLADSLETALKLADGKVVVDVIGEGELLFS	soluble
MAELYVKPGNKERGWNDPPQFSYGLQTQTGGPKRTPLTKRVAAPQDGSPRAPETSGPPPVDHPPPSSKASRPPPMGSCPATGVEPPSSPVIESETLIEDVLRPLEQALEDCHGHTKKQVCDDISRRLALLREQWAGGKLSIPVKKRMALLVQELLHHQWDAADDIHRSLMVDHVTEVSQWMVGVKRLIAEKKSLSSEETKEEKFTVEPENQTIPGFQQPS	soluble
MRAPEESLREVLARFPQVQAAFLFGSRAEGRARADSDWDLALLLSPEEPDPTLEVLGALVEAGLERVDLVLLHRAPPLLAFLAVKGKPVFLREGFDLGSYVSRVAREWWDTEPLLRVQREALTLKRRWLDPS	soluble
MARSLVFIAIALIAVVSAGPGDKDQPKPDHKKGPGGFHHFFPKFFGNVSEEGKKEIGALFKNQDLTLAEVDTKIAALAEKYGVAAAYKEHKAKEATNEAEAKKKTASVISNLSAVSAKLTAIHDNKSLTRKAQREAIAALRKEHEAEVAALDFIGKRSHGFGKHHGRHGKGNGKFFGKRGGNKMERKTAAQ	not soluble
MGSDKIHHHHHHMLNEMEKTVLQMIMAGSDISRVDISRALGISKPVVSKAVNRLIELGFVKEAGRKESSSKGGRKPVLLSFVPESRYVIGVDIGGTKIDAVLTDLVGNVLNKEHILLPSNLDKRKLLELIKKVIHPFLVYERILGIGIGIPGTVDEDHLVKRIPAFDVTDWDLKEELEKTFGYPVFVENNANLDAFAEAKIGAGRGFRCVLLISVGWGIGSGIVYDGKIFRGARGKAGEFGHIVTDWSKEKEIVLEKGFGHLEEWFSGFSMSKRFGKSPEWVFEKRHNEIKKNLEHFGVAVANAIVLFDPDVVIIKGGIGLHQFEKISAVVRSVVSKIVPEDILKDVEIRKGEIEEYGVAIGGALFVIENILGLKGGGKYEGCQASREVGSKAGV	not soluble
MEDNNELIKGRGAQMQAKSRFHAQEIVQEHMEGIDEITDINTPTQYLYENAKQIVNKVDSPDIGLAYSMNPYQGCEHGCIYCYARNSHEYWGYNAGIDFEKKIIVKRNAASVLAKTFEKPNWEVLPIMFSGNTDCYQPIERKLQITRNMLQVIATYKHPVGMITKNHLITRDIDILKELAAQQLVHVSISITSARDEIRQKLEPRASAISQRLKTVEALAKENIPVNVMIAPIIPGINHHEIPQIMKQIADAGASSAAYTIVRLNGSIGVVFEDWIRKAYPDRADKVLNQIKECHGGTLNDSRFSTRMRGQGNIAASIHDLFYVSRKKYLSGREYPPLRTDLFVRSNKGQLGLF	not soluble
MSLGFSTYRATNYNEGTAYGNTPVILTLKSTSKSNLKTAVEELQKLNASYSNTTTLAGDDRIQTAIEISKEYYNNDGEKQDHSADVKENVKNVVLVGANALVDGLVAAPLAAEKDAPLLLTSKDKLDSSVKSEIKRVLDLKTSTEVTGKTVYLAGGVNSVSKEVVTELESMGLKVERFSGDDRYETSLKIADEIGLDNDKAYVVGGTGLADAMSIASVASTKLDGNGVVDKTNGHATPIVVVDGKADRISDDLDSFLGSADVDIIGGFASVSEKMEEAISDATGKGVTRVKGDDRQDTNSEVIKTYYANDTEGHHHHHH	soluble
MTPWLTVVGIGEDGFSGLGKQARRALLGAGRVFGSPRQLALLPRCVTAEQLAWPSPFSLAPVLALRGEPVCVLASGDPMFYGVGASLARQVPAAEMRVLSLPSSCALAAARLGWPLQDLQVVSLVARPLAALNAHLHSGMRLLVLSNDGDSPAAIAAQLRGQGFGPSRLQVFEHLGGVDERALAGTAQDWPHTGIAALNLVAIECLATPDAPRLHRLAGLPDAAYRHDGQLTKRDVRAITLARLAPQPGELLWDVGAGCGSIGIEWMRAHPACRALAIEADEGRQGLIEHNRDALGVPGLQLVRGKAPAALQGLEQPDAIFIGGGVTRTGVLDLCWASLRPGGRLVANAVTLQSELALAHFREQHGGELTRIHVAHAQPLGAFDTWRQALPITLLEVLKPADA	not soluble
MISSTKLSILALALVGAVLARPQFPGGPPPGMSAVPPPIAAVLPPETLARLEAIHADSSLSELEKHKAIDTIMVNLPEEVHDRIPPPPGFAQLPAEVQAQLKTIHRDKNLDFQERQAAIHGVLENLAPEFKRLLPPPPPGFPQRRQ	soluble
MSLEDTGIFGYSRAGSINGIEYPYVINVKTDFVENDGKLNFMGEEIDRMLIYPSQIKQEIVETESFVIIPNGAELIRRPKNLVSIIMNVHEKYGFSKLIYLSGLPDPYSIPALVYLGVSFFDDAYFRIEGINGLQFTQYGIRRTNEDQTENNMNFVRSMLNVIKDSIMNGTLRDIVEKNLVSSKAAEMIRIADYSYYEEYEKIFPSRTPYIKANTIEDLYRPDIVRYREYVANLYEKPDLDVAVILPCSAKKPYSKSKSHQKVINSLSDLRKYIHEIIVTSPLGVVPRDLEETYPAMFYDIPVIGLWYEDEKVMMKRMLRSYMSRNKYRKVIAFVPDDLEFITDSIPYDTEFIEFKSSNLSKLRQTVEKEKFASKSIDQKKAKYESVLKYQFGSWILPLINGYSLRRNYNQDMIVKDGKILFVYNERLGKFTINKASAEMFVKNGRFLVEIDDFKPTSNVYAMGVRDATDDIRQEDEVVLVHSGEIRGVGIAKMNARAMMELKKGIAVKVREGHHHHHH	soluble
MIDLHCHSTVSDGMLSPAEVVRLAHQNGCTLLALTDHDHTGGIAEARAEADKLGLRLINGVEISVTWRGRTIHVVGLDFDEQDENLQNLLAQVRKGRLKRLEAIAAKLEKKGIGGAYDGALALAANKEMVSRTHVAEFLIQAGHVKNKQQAFTKYLGDGKSCAVRHEWATLEDCVSAVNGAGGMAVIAHPMRYDLSATAKRNLFEEFKNLGGAGIEVHSGNCCKNDRLNYALLAERFGMLASAGSDFHRLNDFSGGILGACPELPENCKPVWEHFSRY	not soluble
DQQYVKNFLLLVKSDNPEEQAAATETSIPRKLREMRMASTIDSTLSKDDILTRYLNLVHLGNGAFGVEAAARTYFGKGAPELSLAQSAMFAGIVQSSSYLDPYTNPDAVMDRRNVVLDTMAANGYATPEDVAAAKAEPLGVLEQPQGLPNGCITAGDNGFFCDYVLKYLSEKGLSTDQLTQGSYTINTTLDPDVQQAAHAAAAGQVNSHTFGVANVMNIVEPGKDSRKILAMTSSRDYGLDLDAGQTVLPQPTSLVGNGAGSVFKIFTAAVALQQGYGLDTQLQVPPRYEAKGMGDGGAEGCGAGTYCVENSGSYAPQMSLRDALAFSPNTPFVQMIEKVGVKDVVDTSVKLGLRSYANPGTFNKDNSIADYVKEHNLGSYTLGPTAVNPLELSNVAASLASDGMWCEPSPITTVTDAKGNEVFLDRPACEQAIDPEIAQALSAGLSQDTIKGTGAQAAKSLGFSAPTAAKTGTTESHSS	not soluble
SLALSPGNLQKTAAGPDGQPQLAEKAPEKAQVDVPAAGDTAGLQPQSGRSGANINRATLPDGNVVSVYSPRPRDSDGPVLMSGQTYGQDPRMATRPNEELLEETAFGQLPVVGADGLRPMEQYARPWSGARGTRVAIVVGGLGLSQTGSQKAIRDLPPEVTLGFAASGNSLQRWMQDARREGHEILLQIPLEPFGYPGTNPGPDTLLAGDPAKVNIDRLHRSMAKITNYTGVMNYLGGRFLAEQSALEPVMRDIGKRGLLFLDDGSSAQSLSGGIAKAISAPQGFADVLLDGEVTEASILRKLDDLERIARRNGQAIGVASAFDESIAAISKWSREAGGRGIEIVGVSALVSGQAGQ	soluble
